# Experimental data from a protein production outcome set (Wang et al. 2014).
# Experiment: label from the status in PepcDB records
row,Sequence,protein production
1,MKIATYNVRVDTEYDQDWQWSFRKEAVCQLINFHDWSLCCIQEVRPNQVRDLKAYTTFTCLSAEREGDGQGEGLAILYNEQKVQAIDTGYFWLSETPQQPSIHPEAGCPRIALWGLFKETTQNTPFLVINVHLDHISAHARLAGMTVILEELHDKIAQYPTLLMGDFNAESGEEVHQLVQKKFQDSKNLATHYGPRGTFQNFTYTKPWAELEEIDYIYVKGWQVQQTASLTDSIDGRFPSDHFPLEAEV,not failed
2,MHVALNQTMPDDVQGTVATIYTSSEQLQLFAFEAEVNENFEMAAAYYKERLVREPQNLDHWLDYGAFCLLTEDNIKAQECFQKALSLNQSHIHSLLLCGVLAVLLENYEQAEIFFEDATCLEPTNVVAWTLLGLYYEIQNNDIRMEMAFHEASKQLQARMLQAQVTKQKSTGVEDTEERGKRESSLGPWGITNGSATAIKVEAPAGPGAALSILDKFLEESSKLQSDSQEPILTTQTWDPSISQKPSNTFIKEIPTKKEASKCQDSSALLHPGLHYGVSQTTTIFMETIHFLMKVKAVQYVHRVLAHELLCPQGGPSCEYYLVLAQTHILKKNFAKAEEYLQQAAQMDYLNPNVWGLKGHLYFLSGNHSEAKACYERTISFVVDASEMHFIFLRLGLIYLEEKELEELTEAEDALSEANALNNYNAEVWAYLALVCLKVGRQLEAEQAYKYMIKLKLKDEALLAEIHTLQETVGFGNPSF,failed
3,MLKIRCQACSTILEASYKISYNAQDMKYKNLPVYEQKDRILEMLEHNQVIVVESPTGSGKTTQLPVILHEAGYSRSGMIGVTQPRRIAALSVSEFISKQLKEPMPGLVGYKMRFEDKTSNDTKIKIMTDGILLQELKLDPWLSKYSVILVDEAHERSLNIDFILGLLKRIITERKDFKVIISSATINTDLFSMYFDGCPVIKIDAITYPVTLIFDPPAVKASTDTQEAETALMDKIASIVGRILSEGRSGAILVFLPGERAIKDCIERLSKEPWYRKLFILPLYGRLSKEEQERVFKSPPFGKKKIVISTNIAETSITINDIAAVIDSGLAKLNFYNPFTFTSSLDETLISRASCNQRRGRAGRTQEGVCYRLYTRKDFETRQLYTLEEIYRTDLSEVVMRMAELGILDFENFDFISPPGKKGIIGAIDTLNMLDALESDRSLSSIGKMMCLFPLAPRQSRIIVEAITRYPDLVEEVLIAAAFLSARSPVIFPEGEEIEARKAHALFDEPLGDFASFLKVFRMYSQALDKERFCKIHYLDDRVMAEIANIKEQLELIVSDMGVPILSGGKMEHYLTAIAKGMIQFVCSAQGRDSYRSLTTEKIFIHPGSCMYKEKEQFIVAGEIVRTSRMYAMSVSPLSKKIIEEVAPALLERKDKRAKKEKDEHRADQKEEKKKPEEESVLIEGTRYLIKKIKGKKHLILPWKEFKLTAEAVFKKYSEENQNGALEQLKGLRGKIEINKSELLSGEKMDLILNVVNNFNIEQIEKTEDEKHFDRNKNYFIEEDLEALVNSLNLLFRTTIAKKTTKQLGFITLFCDGTGHFWFKTSRGFHTALHESLVSLQSLIDLAGENFNEDQKIIVRTIYGKMNKMI,failed
4,MSDSAIGVGYAADNPGWLIGMSETQERLQRLRAQAASLVFYAGILESATGRAFLELLDALSHQQPLAAVTAYSTWLGHLLASRQSWPQWLMHHIRSDDNPFSRQAQFAIASSLPEVWQQSACQDLQTLQQLASAPPRLLAPMVQALADLPTPPPHWLEETRDREAQWAETEDWAMLLPDLIQHYQQRGVGFFNRYWALRWQQGQLHGIEHPDPIPLSDLAGYELQKETLKRNTEFLLAGLPAQNVLLYGSCGAGKSSMVKALINAYGDRGLRLIEVGKADLRELPQILDQLRESALSFIVFVDDLSFEEDDETFKALKVVLEGGLTARPPNVVVYATSNRRHLVREYFDERPNPTEANEVHAWDSVQEKLSFSDRFGLTLTFEPADQDTYLAIVRHLASEVGLTMPLETLEFRARQWATRHNGRSGRTARQFMDWLIAEQSLPNPL,failed
5,MESMQDLWTLKYRAETLEGMLGNEHAVRTLSELLQSGTLPHLIFYGPENSGKTTASLALARELYGETWKNNFVYFNASDFFDQGKRYLVRDKRFVRILGTDDPKKIYKSVIDIFKEVVNEYAGMASIDADYKIIYIDNAESLSSDAQHALRRIMEKYSSTCRFILSTTRPSKLISPLRSRGLQVFFAYVPDSLLKTHLERIALAEKLKLSDGALDAVLYLAKGNVARAVQTLQLAALRSEGAEITEEIVYEATMKGRDETIDELLEAALAGDFARGRQLIDGMIIEKGLSGTDIFEGLSEALIDSGETDADIARLIVSISEADARLTDATSERIQLEKLISTFS,failed
6,MQTWQQLYSPLGSLGLSALAAVIPIVFFFLALAVFRLKGHVAGSITLALSILVAIFAFQMPADMALAAAGYGFAYGLWPIAWIIVAAVFLYKLTVKSGQFEIIRSSVLSITDDQRLQVLLIGFCFGAFLEGAAGFGAPVAITAALLVGLGFNPLYAAGLCLIANTAPVAFGALGIPIIVAGQVTGIDAFKIGAMTGRQLPLLSLFVPFWLVFMMDGMRGVKETWPAALVAGLSFAVTQYFTSNFIGPELPDITSALASLISLTLFLKIWQPKRTAGAQIAGATSSAAITASAGGFGQPRQTQASPYSLGQIFKAWSPFLILTVLVTIWTLKPFKAMFAAGGSMYGWVFNFAIPHLDQLVIKMAPIVTTPTAIPAVFKLDPISATGTAIFFSALISMLLLKIDFKTGLTTLKETFYELRWPILSIGMVLAFAFVTNYSGMSSTMALVLAATGAAFPFFSPFLGWLGVFLTGSDTSSNALFSSLQATTAHQIGVNDTLLVAANTSGGVTGKMISPQSIAVACAATGLVGKESDLFRFTLKHSLFFATIVGLITLAQAYWFTGMLVH,failed
7,MSSCCAAEAKNASERKLLWIVLILNFSMFVIEFIAGWLANSSGLLADSLDMLADAAVYSLSLYAVGKSLLYKGRAALANGYLQLSLGLLVLVDVARRIWLGSEPQSELMLSIGFMALIVNMICFVLLYQFRQGDVNLKASWICSRNDMLANIGIIISAVLVGQFDAAWPDWVIGSVIAGIVIHSSLAIINEAKVSIQSDAVADKNRT,failed
8,MNSMAKKDNLTEELKKHFGFDTFKGNQRAIIENVLAGNDTFVLMPTGGGKSLCYQLPSLMMQGTAIVISPLIALMKNQVDAMRNFSEEDGVAHFINSSLNKSAIDQVKDDIRNGRTKLLYVAPESLTKDENVEFLRQVNISFYAVDEAHCISEWGHDFRPEYRRIRPIINEIGKRPLIALTATATPKVQHDIQKNLGMIDASVFKSSFNRSNLYYEIRPKTANIDREIIKYIKSNEGKSGIIYCLSRKKVEEFADILKANGIKALPYHAGMDSQQRSSNQDAFLMEKADVIVATIAFGMGIDKPDVRYVIHYDIPKSLEGYYQETGRAGRDGGEGQCIAFYAYKDLQKLEKFMQGKPVAEQEIGKQLLLETAAYAETSVCRRKVLLHYFGEEYLEENCGNCDNCLNPKKKVEAKELLSAVLEVVGTLKEKFKAEYIVNMLVGNETSEIQSYKHNELEIFGSGSDEEEKTWNAVIRQALIAGYLAKDIENYGLLKITEKGKEFIKKPVSFKITEDNEFDEEEEEVPVRGGAACAVDPALFSMMKDLRKKLSKRLEVPPFVIFQDPSLEAMATTYPVTLEELQNIPGVGAGKAKRYGKEFIELIKRHVEENEIERPEDLRVRTVANKSKLKVSIIQRIDRKVALDEIAMTNGLEFNELLDEIEAIVYSGTRINIDYFLNDVMDEDHIDDIYEYFKDSETDDLEDAIEELGGDYTEEEIRLVRIKFLSEMAN,failed
9,MIRALSMHLLDRLTIRLFHDERQKQFSGDHARSLGWSSTESQFLRFKTMTQAINFEQKTVLDLGCGYGDFKTFLDMSCCIKSYTGVDQQSSFIKQAKSLFKHHTNCEFIKADFSATTLPKADIVVASGSLNYRARNKTYHAKVIKEMYERAEEAVIFNLLNSEHFTSSSLLEAHDPQQVLKYCLSFCPDSELITDYANEDFTIVMRHSNSSKLEHHHHHH,not failed
10,MNDALHIGLPPFLVQANNEPRVLAAPEARMGYVLELVRANIAADGGPFAAAVFERDSGLLIAAGTNRVVPGRCSAAHAEILALSLAQAKLDTHDLSADGLPACELVTSAEPCVMCFGAVIWSGVRSLVCAARSDDVEAIGFDEGPRPENWMGGLEARGITVTTGLLRDAACALLREYNACNGVIYNARCGVHK,not failed
11,SLSSTQSVNSVLAPGNLRKVHHIALNVQDMQASRYFYGTILGLHELTDDEVPATLTELVASGKVANFITPDGTILDLFGEPELSPPDPNPEKTFTRAYHLAFDIDPQLFDRAVTVIGENKIAIAHGPVTRPTGRGVYFYDPDGFMIEIRCDPEAEG,not failed
